The text below walks through data of patent US7005258.

Data set [1] deals with starfish p34^cdc2, tyrosine-phosphorylated, from G2-arrested oocytes.
The next data set addresses Xenopus cdc2 (34 kD) (UniProt P24033).
The target of data set [2] is Xenopus cdc2 from prophase oocytes, tyrosine phosphorylated (UniProt P24033).
In data set [3] the target is Xenopus cdc2/cyclin B complex (UniProt P24033).
For data set [4], the target named is Xenopus cyclin B2 (Xenopus laevis) (UniProt P13351). Description: co-immunoprecipitation, quantified immunoblots. (In general: In western blotting, separated proteins are transferred to a membrane and probed.)
Data set [5] addresses Xenopus cdc2 (34 kD) (Xenopus laevis) (UniProt P24033). Description: co-immunoprecipitation, quantified immunoblots, metaphase eggs.
The target is the same in data set [6]. The data set is described as follows: co-immunoprecipitation with anti-cdc25 antibody against p13-Sepharose precipitate as total, quantified immunoblot.
Data set [7] addresses Xenopus cyclin B2 (Xenopus laevis) (UniProt P13351). Described as above.
For data set [8], the target named is GST-cdc25 A fusion protein (glutathione-S-transferase / human cdc25 A) (human) [GST: P08515]. The data set is described as follows: cell-based or functional assay.

Xenopus cdc2 (34 kD), sequence (P24033 whole entry): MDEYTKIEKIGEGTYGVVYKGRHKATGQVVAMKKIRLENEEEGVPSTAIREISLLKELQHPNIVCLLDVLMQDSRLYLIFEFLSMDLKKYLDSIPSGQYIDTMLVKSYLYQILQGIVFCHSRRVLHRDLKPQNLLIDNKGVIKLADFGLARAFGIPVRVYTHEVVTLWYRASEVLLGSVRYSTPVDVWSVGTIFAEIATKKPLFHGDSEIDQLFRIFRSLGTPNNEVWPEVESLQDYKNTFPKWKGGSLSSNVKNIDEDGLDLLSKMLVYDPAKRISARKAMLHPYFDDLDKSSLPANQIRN
Xenopus cdc2 (34 kD) (Xenopus laevis), sequence (P24033 whole entry): as above
Xenopus cyclin B2 (Xenopus laevis), sequence (P13351 whole entry, the tested form may be a part): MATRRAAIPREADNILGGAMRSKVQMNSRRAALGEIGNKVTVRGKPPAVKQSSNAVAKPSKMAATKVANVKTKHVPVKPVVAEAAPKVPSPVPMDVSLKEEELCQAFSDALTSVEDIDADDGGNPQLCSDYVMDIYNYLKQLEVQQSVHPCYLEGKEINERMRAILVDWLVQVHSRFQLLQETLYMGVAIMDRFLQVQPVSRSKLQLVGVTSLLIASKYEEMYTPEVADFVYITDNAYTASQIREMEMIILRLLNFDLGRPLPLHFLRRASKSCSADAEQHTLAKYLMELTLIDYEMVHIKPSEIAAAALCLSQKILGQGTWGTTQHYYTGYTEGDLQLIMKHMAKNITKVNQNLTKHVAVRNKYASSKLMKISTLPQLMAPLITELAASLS
Xenopus cdc25 protein (p72), sequence (Q13972 whole entry): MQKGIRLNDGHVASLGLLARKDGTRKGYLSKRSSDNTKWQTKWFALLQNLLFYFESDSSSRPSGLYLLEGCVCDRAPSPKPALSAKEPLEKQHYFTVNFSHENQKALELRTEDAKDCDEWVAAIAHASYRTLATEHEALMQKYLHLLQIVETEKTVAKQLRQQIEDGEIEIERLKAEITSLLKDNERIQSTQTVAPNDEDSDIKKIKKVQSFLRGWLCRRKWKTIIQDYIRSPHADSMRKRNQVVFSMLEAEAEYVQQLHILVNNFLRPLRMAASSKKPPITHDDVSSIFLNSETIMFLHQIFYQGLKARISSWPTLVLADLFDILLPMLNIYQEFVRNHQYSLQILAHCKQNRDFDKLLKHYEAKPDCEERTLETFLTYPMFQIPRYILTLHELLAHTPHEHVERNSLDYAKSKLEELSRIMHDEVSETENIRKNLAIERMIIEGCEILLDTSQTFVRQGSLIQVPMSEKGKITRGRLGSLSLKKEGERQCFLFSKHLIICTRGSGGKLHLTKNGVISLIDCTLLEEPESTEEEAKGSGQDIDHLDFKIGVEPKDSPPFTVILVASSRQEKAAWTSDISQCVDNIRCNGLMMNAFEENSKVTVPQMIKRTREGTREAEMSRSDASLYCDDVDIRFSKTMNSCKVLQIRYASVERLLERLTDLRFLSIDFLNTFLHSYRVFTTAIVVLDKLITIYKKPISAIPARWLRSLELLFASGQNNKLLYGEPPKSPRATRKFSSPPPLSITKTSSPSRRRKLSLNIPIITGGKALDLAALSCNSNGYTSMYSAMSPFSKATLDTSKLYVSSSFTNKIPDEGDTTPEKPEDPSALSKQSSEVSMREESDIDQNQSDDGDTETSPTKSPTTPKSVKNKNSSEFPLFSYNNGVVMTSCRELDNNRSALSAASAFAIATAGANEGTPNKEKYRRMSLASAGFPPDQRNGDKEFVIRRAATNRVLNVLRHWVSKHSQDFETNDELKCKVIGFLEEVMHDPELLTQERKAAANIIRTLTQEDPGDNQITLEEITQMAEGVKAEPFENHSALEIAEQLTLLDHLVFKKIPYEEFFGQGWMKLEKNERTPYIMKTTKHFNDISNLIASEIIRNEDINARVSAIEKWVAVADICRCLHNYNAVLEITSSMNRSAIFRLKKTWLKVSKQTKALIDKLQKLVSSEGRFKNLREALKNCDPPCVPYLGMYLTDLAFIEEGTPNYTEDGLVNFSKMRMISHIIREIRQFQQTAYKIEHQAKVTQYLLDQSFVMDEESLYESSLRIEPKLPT
Xenopus cdc2/cyclin B complex, sequence (P24033 whole entry, chain 1 of 2): as the sequence (P24033 whole entry) above
Xenopus cdc2/cyclin B complex, sequence (chain, as listed by the source, chain 2 of 2): as the sequence (P13351 whole entry, the tested form may be a part) above
Xenopus cdc2 from prophase oocytes, tyrosine phosphorylated, sequence (P24033 whole entry): as the sequence (P24033 whole entry) above

Regarding “GST-cdc25 A fusion protein (glutathione-S-transferase / human cdc25 A)”, in [1], the “tyrosine dephosphorylation of p34^cdc2” value is listed as “Treatment with purified GST-cdc25A protein induced almost complete tyrosine dephosphorylation of p34^cdc2”.
As to Xenopus cdc25 protein (p72), in the data set with Xenopus cdc2 (34 kD), the “histone H1 kinase activity in anti-cdc25 immunoprecipitates” value was “Histone H1 kinase activity was detected in anti-cdc25 immunoprecipitates from metaphase eggs”; the “histone H1 kinase activity of cdc2 that is inactive in the absence of cyclin (eggs activated in the presence of cycloheximide)” value is given as “In neither case did p72 have any effect on the histone H1 kinase activity of cdc2”; the “relative metaphase kinase activity in p13-Sepharose precipitates and anti-cdc25 immunoprecipitates” value is “approximately 20-fold different”. Besides, the “histone H1 kinase activity of inactive prophase p13-bound cdc2” value in [2] is “Both prophase and metaphase cdc25 stimulated histone H1 kinase activity 12-fold”. Moreover, the “histone H1 kinase activity of fully activated cdc2/cyclin from metaphase unfertilized eggs” value in data set [3] is recorded as “In neither case did p72 have any effect on the histone H1 kinase activity of cdc2”.
With “Xenopus cdc25 protein (p72) (from UniProt Q13972) (enzyme)”, in [4], the percent of the full cellular content of cdc25 present in anti-cyclin B2 immunoprecipitates was 20% and the percent of the total population of cyclin B2 associated with cdc25 stood at 17%. In [5], this substance gave a percent of the cellular content of cdc25 present in anti-cdc2 immunoprecipitates of 20% and a percent of the total cellular cdc2 present in anti-cdc25 immunoprecipitates of 5%. Further, the fold, cdc2 in p13-Sepharose precipitate over cdc2 in anti-cdc25 immunoprecipitate in [6] came out at 20 fold. This substance had a fold, cyclin B2 in p13-Sepharose precipitates over cyclin B2 in anti-cdc25 immunoprecipitate in data set [7] of 6 fold.
Regarding “human cyclin B1 expressed as fusion protein with GST (from UniProt P14635 1-433)”, in data set [8], the amount of cyclin B1 at which activation of cdc25 A (10 pmoles) plateaus, RCML phosphatase assay was found to be 10 pmol; the phosphatase activity of cdc25 A in the presence of p13 was 8 fold; the tyrosine phosphatase activity of cdc25 A against 32P-labelled RCML was 4 fold.
On to “human cyclin B2 expressed as fusion protein with GST (from UniProt O95067 1-398)”, for which the tyrosine phosphatase activity of cdc25 A against 32P-labelled RCML in data set [8] came out at 4 fold.
